Data as given in article PMC6224390.

Molecular target: BG505 SOSIP trimer (HIV-1 (BG505)) (UniProt Q2N0S6)
Assay: SEC-MALS

## BG505 SOSIP trimer (from UniProt Q2N0S6 1-860; Q2N0S6 1-860) (complex)
  stoichiometry N: 3
